{"source": "patent US20080182795A1", "about": "(BOSTON MEDICAL CENTER, published 2008)", "key": {"[1]": {"biological_target": "T1, GLP-1 receptor of βTC3 cells (mouse, UniProt O35659 22-463)", "T1 construct": "whole, on cells; also called βTC3 cell receptor; GLP-1 receptors", "T1 sequence (looked up)": "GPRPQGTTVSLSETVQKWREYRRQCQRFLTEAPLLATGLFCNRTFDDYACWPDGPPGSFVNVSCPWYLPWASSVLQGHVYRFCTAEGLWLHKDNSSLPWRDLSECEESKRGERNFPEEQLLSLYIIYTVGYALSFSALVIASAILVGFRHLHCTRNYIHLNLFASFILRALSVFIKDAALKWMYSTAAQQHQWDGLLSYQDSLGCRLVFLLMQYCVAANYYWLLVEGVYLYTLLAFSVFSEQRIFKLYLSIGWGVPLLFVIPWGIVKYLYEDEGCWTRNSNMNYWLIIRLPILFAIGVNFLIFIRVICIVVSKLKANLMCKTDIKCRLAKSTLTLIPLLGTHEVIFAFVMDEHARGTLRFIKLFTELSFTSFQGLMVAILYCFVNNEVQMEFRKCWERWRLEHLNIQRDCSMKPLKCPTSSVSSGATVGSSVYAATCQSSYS", "experiment": "competition with [125I]GLP-1 for binding to βTC3 cells (GLP-1 receptor), room temperature", "method": "(§1) The specific activity of radiolabeled peptides was 10-50 μCi/mg (Hunter, et al., 1962, Nature, 194:495-498; Kieffer, et al., 1993, Can. J Physiol. Pharmacol., 71:917-922). Aliquots were lyophilized and reconstituted in assay buffer at 4° C. to a concentration of 3×10⁵ cpm/100 μl. […] The receptor binding buffer contained 138 mM NaCl, 5.6 mM KCl, 1.2 mM MgCl₂, 2.6 mM CaCl₂, 10 mM Hepes, 10 mM glucose, and 1% bovine serum albumin (BSA, fraction V, protease free, Sigma). […] Cells were washed once with PBS and then harvested with PBS-EDTA solution. βTC3 cells were then suspended in assay buffer at a density of 2×10⁶ cells/ml, and LGIPR2 cells were used at a density of 2.5×10⁵ cells/ml. […] Specific binding was defined as the difference between counts in the absence and presence of unlabeled peptide. […] Values are expressed as a percentage of maximum specific binding and are the mean ±SE, with assays performed in duplicate."}, "[2]": {"biological_target": "T2, rat GIP receptor (rat, UniProt P43219 19-455)", "T2 construct": "whole, on cells; LGIPR2 cells also carry a cAMP-dependent VIP promoter-lacZ reporter; also called LGIPR2 cells; LGIRP2 cells", "T2 sequence (looked up)": "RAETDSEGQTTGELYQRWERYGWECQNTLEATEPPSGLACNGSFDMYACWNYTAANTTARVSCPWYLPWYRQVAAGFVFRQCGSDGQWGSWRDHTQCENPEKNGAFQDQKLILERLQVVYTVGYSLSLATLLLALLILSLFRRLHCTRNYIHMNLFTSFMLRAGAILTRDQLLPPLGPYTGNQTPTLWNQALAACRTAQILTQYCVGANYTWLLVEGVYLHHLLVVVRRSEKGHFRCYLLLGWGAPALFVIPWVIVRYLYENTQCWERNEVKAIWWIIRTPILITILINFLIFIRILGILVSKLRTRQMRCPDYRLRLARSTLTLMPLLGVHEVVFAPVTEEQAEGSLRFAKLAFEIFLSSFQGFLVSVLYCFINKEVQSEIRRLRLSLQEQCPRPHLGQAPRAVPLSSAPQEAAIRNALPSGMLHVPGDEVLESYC", "experiment": "competition with [125I]GIP (porcine) for binding to LGIPR2 cells carrying the rat GIP receptor, room temperature", "method": "as §1"}}, "note": "Where no end group is shown, it is not given here.", "data": [{"binder": "ISDYSIAMDKIRQQDFVNWLLAQK-NH2 (also called ANTGIP; ANTGIIP)", "note": "[GIP (7-30)-NH2]", "values": [{"measurement": "IC50", "setting": "[1]", "result": 80, "unit": "µM"}, {"measurement": "IC50", "setting": "[2]", "result": 0.2, "unit": "µM"}]}]}
